What all share (experiment): cell-based or functional assay
Experiment [1] deals with T1, ADAMTS4 (human, UniProt O75173 213-685, limits assumed).
T1 sequence (looked up): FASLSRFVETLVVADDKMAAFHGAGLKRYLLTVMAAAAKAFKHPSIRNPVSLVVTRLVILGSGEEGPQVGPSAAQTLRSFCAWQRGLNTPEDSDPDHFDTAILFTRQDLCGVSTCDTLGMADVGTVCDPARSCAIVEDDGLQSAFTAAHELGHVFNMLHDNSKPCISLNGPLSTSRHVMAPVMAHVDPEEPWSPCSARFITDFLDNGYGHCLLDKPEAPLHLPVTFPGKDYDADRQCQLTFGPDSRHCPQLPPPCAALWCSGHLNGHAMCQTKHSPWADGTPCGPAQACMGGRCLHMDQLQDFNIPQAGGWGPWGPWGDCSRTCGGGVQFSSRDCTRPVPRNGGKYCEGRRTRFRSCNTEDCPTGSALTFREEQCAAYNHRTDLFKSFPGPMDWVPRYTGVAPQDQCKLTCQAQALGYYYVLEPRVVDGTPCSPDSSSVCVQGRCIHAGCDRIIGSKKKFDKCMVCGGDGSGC

Experiment [2] concerns the target T2, ADAMTS5 (human, UniProt Q9UNA0 262-622, limits assumed).
T2 sequence (looked up): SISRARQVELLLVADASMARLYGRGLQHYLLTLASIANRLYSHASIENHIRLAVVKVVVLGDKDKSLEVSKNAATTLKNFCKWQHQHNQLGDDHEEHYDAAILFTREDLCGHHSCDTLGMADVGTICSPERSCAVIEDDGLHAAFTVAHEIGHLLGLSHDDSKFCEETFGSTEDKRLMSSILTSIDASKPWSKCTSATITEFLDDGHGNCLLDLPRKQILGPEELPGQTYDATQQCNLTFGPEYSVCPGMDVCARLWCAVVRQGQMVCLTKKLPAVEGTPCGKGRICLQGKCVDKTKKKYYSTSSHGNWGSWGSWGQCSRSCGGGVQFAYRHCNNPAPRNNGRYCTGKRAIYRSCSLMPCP

Experiment [3] has as its target T3, MMP1 (human, UniProt P03956 100-469, limits assumed).
T3 sequence (looked up): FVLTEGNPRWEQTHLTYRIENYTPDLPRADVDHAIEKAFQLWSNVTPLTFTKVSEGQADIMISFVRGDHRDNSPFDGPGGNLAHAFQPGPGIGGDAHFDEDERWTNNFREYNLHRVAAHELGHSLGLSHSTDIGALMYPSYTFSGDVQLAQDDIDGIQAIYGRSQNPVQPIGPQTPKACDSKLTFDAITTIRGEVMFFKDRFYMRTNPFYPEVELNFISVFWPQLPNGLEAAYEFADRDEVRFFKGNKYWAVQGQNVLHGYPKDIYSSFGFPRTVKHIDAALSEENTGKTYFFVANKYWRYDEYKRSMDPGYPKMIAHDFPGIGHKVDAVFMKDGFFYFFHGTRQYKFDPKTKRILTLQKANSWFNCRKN

Experiment [4] has as its target MMP8 (human, UniProt P22894 101-467, limits assumed).
Experiment [5] deals with MMP13 (human, UniProt P45452 104-471, limits assumed).
The target of experiment [6] is T4, MMP2 (human, UniProt P08253 110-660, limits assumed).
T4 sequence (looked up): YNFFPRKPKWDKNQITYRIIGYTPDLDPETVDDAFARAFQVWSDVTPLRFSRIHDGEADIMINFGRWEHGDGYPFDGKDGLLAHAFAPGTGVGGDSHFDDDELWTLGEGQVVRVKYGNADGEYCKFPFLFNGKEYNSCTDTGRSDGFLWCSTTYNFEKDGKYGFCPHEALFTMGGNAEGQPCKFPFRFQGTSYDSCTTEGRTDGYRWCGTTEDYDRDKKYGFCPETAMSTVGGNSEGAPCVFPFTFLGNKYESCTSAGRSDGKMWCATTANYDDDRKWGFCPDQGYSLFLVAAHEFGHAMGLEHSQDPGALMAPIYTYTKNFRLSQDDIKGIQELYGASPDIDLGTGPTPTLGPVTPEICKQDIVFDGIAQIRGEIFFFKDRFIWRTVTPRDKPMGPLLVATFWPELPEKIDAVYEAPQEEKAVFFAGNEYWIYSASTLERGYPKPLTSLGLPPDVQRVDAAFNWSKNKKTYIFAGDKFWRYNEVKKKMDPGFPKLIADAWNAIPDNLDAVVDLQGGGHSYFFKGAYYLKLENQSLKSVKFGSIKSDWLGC

The target in experiment [7] is MMP9 (human, UniProt P14780 107-707, limits assumed).
Chain of MMP9 (P14780 107-707 limits assumed): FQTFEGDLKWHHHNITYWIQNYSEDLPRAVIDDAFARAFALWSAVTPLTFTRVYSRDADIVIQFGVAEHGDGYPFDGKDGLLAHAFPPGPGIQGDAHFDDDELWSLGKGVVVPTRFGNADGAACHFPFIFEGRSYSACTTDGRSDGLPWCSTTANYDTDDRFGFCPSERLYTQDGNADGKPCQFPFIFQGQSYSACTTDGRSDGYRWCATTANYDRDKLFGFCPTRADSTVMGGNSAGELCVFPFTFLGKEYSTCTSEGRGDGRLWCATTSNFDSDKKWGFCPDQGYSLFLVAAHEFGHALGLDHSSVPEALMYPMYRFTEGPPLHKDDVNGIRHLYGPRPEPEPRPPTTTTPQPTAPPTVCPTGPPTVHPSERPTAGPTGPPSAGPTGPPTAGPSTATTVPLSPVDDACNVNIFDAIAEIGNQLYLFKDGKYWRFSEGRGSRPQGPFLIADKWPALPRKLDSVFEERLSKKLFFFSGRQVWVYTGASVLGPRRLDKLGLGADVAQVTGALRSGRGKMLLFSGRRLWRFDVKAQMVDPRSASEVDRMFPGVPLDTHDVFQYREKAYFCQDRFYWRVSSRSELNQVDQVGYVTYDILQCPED
Experiment [8] addresses MMP3 (human, UniProt P08254 100-477, limits assumed).
Experiment [9] has as its target Elastase.
For experiment [10], the target named is T5, Cathepsin G (UniProt P08311 21-244).
T5 sequence (looked up): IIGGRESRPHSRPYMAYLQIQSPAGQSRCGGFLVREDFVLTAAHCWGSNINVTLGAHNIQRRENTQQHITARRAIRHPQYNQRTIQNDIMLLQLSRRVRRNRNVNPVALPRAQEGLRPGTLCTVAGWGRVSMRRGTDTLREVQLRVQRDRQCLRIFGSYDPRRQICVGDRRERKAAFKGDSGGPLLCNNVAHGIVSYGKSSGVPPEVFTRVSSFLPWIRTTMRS

The target of experiment [11] is T6, MMP7 (UniProt P09237 95-267, limits assumed).
T6 sequence (looked up): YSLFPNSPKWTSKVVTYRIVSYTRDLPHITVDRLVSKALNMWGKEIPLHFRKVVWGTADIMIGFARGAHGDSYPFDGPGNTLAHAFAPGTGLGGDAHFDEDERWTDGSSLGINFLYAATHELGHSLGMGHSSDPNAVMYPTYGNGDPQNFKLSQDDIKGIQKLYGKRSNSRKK

Chain of MMP3 (P08254 100-477 limits assumed): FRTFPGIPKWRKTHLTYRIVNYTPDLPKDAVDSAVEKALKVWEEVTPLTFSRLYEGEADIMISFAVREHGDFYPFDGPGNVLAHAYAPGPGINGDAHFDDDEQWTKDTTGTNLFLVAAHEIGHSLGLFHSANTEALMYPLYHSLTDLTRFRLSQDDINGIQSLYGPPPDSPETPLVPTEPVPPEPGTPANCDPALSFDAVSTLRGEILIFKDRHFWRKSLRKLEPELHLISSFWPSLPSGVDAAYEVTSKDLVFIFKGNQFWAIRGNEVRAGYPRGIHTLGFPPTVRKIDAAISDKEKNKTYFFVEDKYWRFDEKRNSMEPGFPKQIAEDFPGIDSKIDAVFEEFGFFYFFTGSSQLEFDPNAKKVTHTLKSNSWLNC
Chain of MMP8 (P22894 101-467 limits assumed): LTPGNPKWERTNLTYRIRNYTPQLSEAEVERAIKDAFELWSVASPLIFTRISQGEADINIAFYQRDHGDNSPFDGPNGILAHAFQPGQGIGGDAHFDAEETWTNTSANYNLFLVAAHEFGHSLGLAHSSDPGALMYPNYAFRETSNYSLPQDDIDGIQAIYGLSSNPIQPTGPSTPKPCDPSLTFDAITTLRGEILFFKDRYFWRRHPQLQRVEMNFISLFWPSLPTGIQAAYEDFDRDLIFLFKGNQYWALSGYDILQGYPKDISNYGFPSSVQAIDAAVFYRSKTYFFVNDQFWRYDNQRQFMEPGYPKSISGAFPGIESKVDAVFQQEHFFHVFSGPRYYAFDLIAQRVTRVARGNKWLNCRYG

B1: Variant A2M, bait region SEQ ID NO 23 (other)
chain: SVSGKPQYMVLVPSLLHTETTEKGCVLLSYLNETVTVSASLESVRGNRSLFTDLEAENDVLHCVAFAVPKSSSNEEVMFLTVQVKGPTQEFKKRTTVMVKNEDSLVFVQTDKSIYKPGQTVKFRVVSMDENFHPLNELIPLVYIQDPKGNRIAQWQSFQLEGGLKQFSFPLSSEPFQGSYKVVVQKKSGGRTEHPFTVEEFVLPKFEVQVTVPKIITILEEEMNVSVCGLYTYGKPVPGHVTVSICRKYSDASDCHGEDSQAFCEKFSGQLNSHGCFYQQVKTKVFQLKRKEYEMKLHTEAQIQEEGTVVELTGRQSSEITRTITKLSFVKVDSHFRQGIPFFGQVRLVDGKGVPIPNKVIFIRGNEANYYSNATTDEHGLVQFSINTTNVMGTSLTVRVNYKDRSPCYGYQWVSEEHEEAHHTAYLVFSPSKSFVHLEPMSHELPCGHTQTVQAHYILNGGTLLGLKKLSFYYLIMAKGGIVRTGTHGLLVKQEDMKGHFSISIPVKSDIAPVARLLIYAVLPTGDVIGDSAKYDVENCLANKVDLSFSPSQSLPASHAHLRVTAAPQSVCALRAVDQSVLLMKPDAELSASSVYNLLPEKDLTGFPGPLNDQDDEDCINRHNVYINGITYTPVSSTNEKDMYSFLEDMGLKAFTNSKIRKPKMCPQLEHGPIPENFYGVEGEGLGIGSEDLVVQISELEGRGSVEEPHTKLRKYFPETWIWDLVVVNSAGVAEVGVTVPDTITEWKAGAFCLSEDAGLGISSTASLRAFQPFFVELTMPYSVIRGEAFTLKATVLNYLPKCIRVSVQLEASPAFLAVPVEKEQAPHCICANGRQTVSWAVTPKSLGNVNFTVSAEALESQELCGTEVPSVPEHGRKDTVIKPLLVEPEGLEKETTFNSLLCPSGGEVSEELSLKLPPNVVEESARASVSVLGDILGSAMQNTQNLLQMPYGCGEQNMVLFAPNIYVLDYLNETQQLTPEIKSKAIGYLNTGYQRQLNYKHYDGSYSTFGERYGRNQGNTWLTAFVLKTFAQARAYIFIDEAHITQALIWLSQRQKDNGCFRSSGSLLNNAIKGGVEDEVTLSAYITIALLEIPLTVTHPVVRNALFCLESAWKTAQEGDHGSHVYTKALLAYAFALAGNQDKRKEVLKSLNEEAVKKDNSVHWERPQKPKAPVGHFYEPQAPSAEVEMTSYVLLAYLTAQPAPTSEDLTSATNIVKWITKQQNAQGGFSSTQDTVVALHALSKYGAATFTRTGKAAQVTIQSSGTFSSKFQVDNNNRLLLQQVSLPELPGEYSMKVTGEGCVYLQTSLKYNILPEKEEFPFALGVQTLPQTCDEPKAHTSFQISLSVSYTGSRSASNMAIVDVKMVSGFIPLKPTVKMLERSNHVSRTEVSSNHVLIYLDKVSNQTLSLFFTVLQDVPVRDLKPAIVKVYDYYETDEFAIAEYNAPCSKDLGNADYKDDDDKGASHHHHHH
For B1, the “Protease Inhibition (% of WT)” value in experiment [1] is 176 % of WT; in experiment [2] it was 200 % of WT; in experiment [3], 133 % of WT; in experiment [4], 132 % of WT; in experiment [5], 133 % of WT; in experiment [6] it was 80 % of WT. The “Protease Inhibition (% of WT)” value in experiment [7] was 71 % of WT; in experiment [8] it was 111 % of WT; in experiment [9], 147 % of WT; in experiment [10], 145 % of WT; in experiment [11], 191 % of WT.

B2: Variant A2M, bait region SEQ ID NO 22 (other)
chain: SVSGKPQYMVLVPSLLHTETTEKGCVLLSYLNETVTVSASLESVRGNRSLFTDLEAENDVLHCVAFAVPKSSSNEEVMFLTVQVKGPTQEFKKRTTVMVKNEDSLVFVQTDKSIYKPGQTVKFRVVSMDENFHPLNELIPLVYIQDPKGNRIAQWQSFQLEGGLKQFSFPLSSEPFQGSYKVVVQKKSGGRTEHPFTVEEFVLPKFEVQVTVPKIITILEEEMNVSVCGLYTYGKPVPGHVTVSICRKYSDASDCHGEDSQAFCEKFSGQLNSHGCFYQQVKTKVFQLKRKEYEMKLHTEAQIQEEGTVVELTGRQSSEITRTITKLSFVKVDSHFRQGIPFFGQVRLVDGKGVPIPNKVIFIRGNEANYYSNATTDEHGLVQFSINTTNVMGTSLTVRVNYKDRSPCYGYQWVSEEHEEAHHTAYLVFSPSKSFVHLEPMSHELPCGHTQTVQAHYILNGGTLLGLKKLSFYYLIMAKGGIVRTGTHGLLVKQEDMKGHFSISIPVKSDIAPVARLLIYAVLPTGDVIGDSAKYDVENCLANKVDLSFSPSQSLPASHAHLRVTAAPQSVCALRAVDQSVLLMKPDAELSASSVYNLLPEKDLTGFPGPLNDQDDEDCINRHNVYINGITYTPVSSTNEKDMYSFLEDMGLKAFTNSKIRKPKMCPQLEHGPEGEGEGEFRGVTIPENFFGVPRYLTASEDLVVQISELEGRGSPHTKLRKYFPETWIWDLVVVNSAGVAEVGVTVPDTITEWKAGAFCLSEDAGLGISSTASLRAFQPFFVELTMPYSVIRGEAFTLKATVLNYLPKCIRVSVQLEASPAFLAVPVEKEQAPHCICANGRQTVSWAVTPKSLGNVNFTVSAEALESQELCGTEVPSVPEHGRKDTVIKPLLVEPEGLEKETTFNSLLCPSGGEVSEELSLKLPPNVVEESARASVSVLGDILGSAMQNTQNLLQMPYGCGEQNMVLFAPNIYVLDYLNETQQLTPEIKSKAIGYLNTGYQRQLNYKHYDGSYSTFGERYGRNQGNTWLTAFVLKTFAQARAYIFIDEAHITQALIWLSQRQKDNGCFRSSGSLLNNAIKGGVEDEVTLSAYITIALLEIPLTVTHPVVRNALFCLESAWKTAQEGDHGSHVYTKALLAYAFALAGNQDKRKEVLKSLNEEAVKKDNSVHWERPQKPKAPVGHFYEPQAPSAEVEMTSYVLLAYLTAQPAPTSEDLTSATNIVKWITKQQNAQGGFSSTQDTVVALHALSKYGAATFTRTGKAAQVTIQSSGTFSSKFQVDNNNRLLLQQVSLPELPGEYSMKVTGEGCVYLQTSLKYNILPEKEEFPFALGVQTLPQTCDEPKAHTSFQISLSVSYTGSRSASNMAIVDVKMVSGFIPLKPTVKMLERSNHVSRTEVSSNHVLIYLDKVSNQTLSLFFTVLQDVPVRDLKPAIVKVYDYYETDEFAIAEYNAPCSKDLGNADYKDDDDKGASHHHHHH
B2: the “Protease Inhibition (% of WT)” value was 104 % of WT in experiment [1]; 316 % of WT in experiment [2]; 68 % of WT in experiment [3]; 54 % of WT in [4]; 93 % of WT in experiment [5]; 42 % of WT in [6]. Also, the “Protease Inhibition (% of WT)” value was 30 % of WT in experiment [7]; 265 % of WT in [8]; 92 % of WT in [9]; 78 % of WT in [10]; 75 % of WT in experiment [11].

(Values after patent US20230250154A1 (CYTONICS, published 2023).)
